How the values were obtained:
[1] = biological target: TIR1 receptor protein with 6 His, maltose-binding protein (MBP) and FLAG affinity tags, expressed in insect cell culture using a recombinant baculovirus (UniProt Q570C0); experiment: SPR; with dicamba
[2] = biological target: TIR1 receptor protein with 6 His, maltose-binding protein (MBP) and FLAG affinity tags, expressed in insect cell culture using a recombinant baculovirus (UniProt Q570C0); experiment: SPR; with 2,4-D
[3] = biological target: TIR1 receptor protein with 6 His, maltose-binding protein (MBP) and FLAG affinity tags, expressed in insect cell culture using a recombinant baculovirus (UniProt Q570C0); experiment: SPR; with IAA (auxin)

Substance	koff [1]	koff [2]	koff [3]
biotinylated Sisymbrium orientale IAA2 wild-type degron peptide	3.29E-02 ?	1.93E-03 ?	2.08E-04 ?
biotinylated Sisymbrium orientale IAA2Δ27 degron peptide (9 amino acid deletion in the degron tail)	4.04E-02 ?	2.71E-03 ?	5.01E-04 ?

Source: patent publication US20220127633A1
